{
  "source": "patent US9192657B2",
  "binders": {"B1": {"name": "KKK191-193AAA-APC (enzyme)", "chain": "ANSFLEELRHSSLERECIEEICDFEEAKEIFQNVDDTLAFWSKHVDGDQCLVLPLEHPCASLCCGHGTCIDGIGSFSCDCRSGWEGRFCQREVSFLNCSLDNGGCTHYCLEEVGWRRCSCAPGYKLGDDLLQCHPAVKFPCGRPWKRMEKKRSHLKRDTEDQEDQVDPRLIDGKMTRRGDSPWQVVLLDSAAALACGAVLIHPSWVLTAAHCMDESKKLLVRLGEYDLRRWEKWELDLDIKEVFVHPNYSKSTTDNDIALLHLAQPATLSQTIVPICLPDSGLAERELNQAGQETLVTGWGYHSSREKEAKRNRTFVLNFIKIPVVPHNECSEVMSNMVSENMLCAGILGDRQDACEGDSGGPMVASFHGTWFLVGLVSWGEGCGLLHNYGVYTKVSRYLDWIHGHIRDKEAPQKSWAP"}},
  "target": "T1, PAR-1 N-terminal tail peptide (TR33-62) (artificial)",
  "T1 sequence (peptide)": "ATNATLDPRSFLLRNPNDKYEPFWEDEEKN",
  "data": [
    {"binder": "B1", "values": [
      {"measurement": "PAR-1 peptide (TR33-62) cleavage (% rwt-APC), catalytic efficiency by HPLC", "value": 88, "unit": "% rwt-APC"}
    ]}
  ]
}
